According to PMC9508527, “Two-component carnitine monooxygenase from Escherichia coli: functional characterization, inhibition and mutagenesis of the molecular interface” (Bioscience Reports, 2022):
Where a chain is given by its changes, count along the chain named. Names may count otherwise. Like-named read-outs stand apart in the source and are kept apart here.

Legend:
[1] = target: T1, CntA (carnitine monooxygenase oxygenase component) (Acinetobacter baumannii, UniProt D0C9N6); assay: L-carnitine depletion assay with purified proteins; assay type: biochemical
T1 construct: with CntB (homologous system) or YeaX (chimeric system)
T1 sequence (D0C9N6 whole entry): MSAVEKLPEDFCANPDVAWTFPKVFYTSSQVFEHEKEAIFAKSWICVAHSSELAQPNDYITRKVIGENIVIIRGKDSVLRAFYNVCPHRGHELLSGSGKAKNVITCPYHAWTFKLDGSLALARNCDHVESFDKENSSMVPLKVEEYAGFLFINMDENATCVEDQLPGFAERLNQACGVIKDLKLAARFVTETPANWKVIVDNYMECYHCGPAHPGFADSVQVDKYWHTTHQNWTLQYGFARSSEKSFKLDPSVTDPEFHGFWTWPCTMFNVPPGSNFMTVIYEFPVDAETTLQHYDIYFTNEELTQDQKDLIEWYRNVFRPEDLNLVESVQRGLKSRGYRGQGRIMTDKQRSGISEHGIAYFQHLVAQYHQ

[2] = target: T2, YeaW (carnitine monooxygenase oxygenase component) (Escherichia coli, UniProt P0ABR7); assay: L-carnitine depletion and O2 depletion assays with purified proteins; assay type: biochemical
T2 construct: N-terminal strep tag II fusion; with YeaX
T2 sequence (P76254 whole entry, one chain of several, the tested form may be a part): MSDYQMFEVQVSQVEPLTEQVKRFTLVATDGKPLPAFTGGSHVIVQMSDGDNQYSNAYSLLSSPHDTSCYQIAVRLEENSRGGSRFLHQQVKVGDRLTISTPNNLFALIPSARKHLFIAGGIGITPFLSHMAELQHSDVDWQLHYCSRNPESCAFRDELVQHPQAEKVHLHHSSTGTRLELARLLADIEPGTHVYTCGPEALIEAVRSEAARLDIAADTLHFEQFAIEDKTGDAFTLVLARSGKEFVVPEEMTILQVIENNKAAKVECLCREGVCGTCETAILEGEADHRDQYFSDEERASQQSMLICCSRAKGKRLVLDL

[3] = target: T2, YeaW (carnitine monooxygenase oxygenase component); assay: L-carnitine depletion assay with purified YeaX/YeaW; slow conversion to TMA also shown by GC-MS; assay type: biochemical
[4] = target: the molecule itself; assay: SEC; analytical gel filtration, Superdex 200 increase 5/150 GL, 10 mM Hepes-NaOH pH 7.5, 150 mM NaCl, 0.45 ml min^-1, 20 µl samples (~300 µM), calibrated with protein standards
[5] = target: T3, YeaW, Rieske-type oxygenase component of carnitine monooxygenase from E. coli (E. coli) (UniProt P0ABR7)
T3 sequence: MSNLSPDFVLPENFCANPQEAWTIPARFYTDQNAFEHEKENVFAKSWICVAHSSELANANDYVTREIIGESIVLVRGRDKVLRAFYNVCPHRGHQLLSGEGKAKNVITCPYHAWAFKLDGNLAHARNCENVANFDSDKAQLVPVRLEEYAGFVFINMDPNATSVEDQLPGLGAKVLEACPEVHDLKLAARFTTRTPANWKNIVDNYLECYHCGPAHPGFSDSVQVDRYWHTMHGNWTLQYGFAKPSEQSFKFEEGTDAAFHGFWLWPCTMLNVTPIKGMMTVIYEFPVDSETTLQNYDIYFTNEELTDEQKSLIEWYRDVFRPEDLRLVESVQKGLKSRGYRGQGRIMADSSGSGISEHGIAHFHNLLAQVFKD

[6] = target: T3, YeaW, Rieske-type oxygenase component of carnitine monooxygenase from E. coli (E. coli); remark: listed apart in the source
[7] = target: T3, YeaW, Rieske-type oxygenase component of carnitine monooxygenase from E. coli (E. coli); remark: listed apart in the source
[8] = target: T3, YeaW, Rieske-type oxygenase component of carnitine monooxygenase from E. coli (E. coli); remark: listed apart in the source

## C[N+](C)(C)C[C@H](O)CC(=O)[O-] [L-carnitine]
[1]
  L-carnitine depletion assay with purified proteins: 353 ± 68 nmol/min/mg
[2]
  L-carnitine depletion and O2 depletion assays with purified proteins: 1288 ± 48 nmol/min/mg

## C[N+](C)(C)NCCC(=O)[O-] [meldonium]
[3]
  IC50: 612 ± 68 µM

B1: YeaW, Rieske-type oxygenase component of carnitine monooxygenase from E. coli (enzyme, UniProt P0ABR7 1-374, looked up)
chain: T3 sequence
notes: primers run from the start to the stop codon; No cleavage of the tag is described; calculated molecular mass 45,463 Da; Carries a Rieske-type [2Fe-2S] cluster and a mononuclear [Fe] center; also called oxygenase YeaW; catalytic unit YeaW
[4]
  stoichiometry N: 3

B2: CntB, reductase component of carnitine monooxygenase from Acinetobacter baumannii (enzyme)
chain: MASHYEMFPAVVTRVEQLTPLIKRFTFKRQDGQNFPRFSGGSHIIVKMNEQLSNAYSLMSCTQDLSTYQVCVRKDVEGKGGSVFMHDQCNEGCEIQISEPKNLFPLAETGNKHILIAGGIGITPFLPQMDELAARGAEYELHYAYRSPEHAALLDELTQKHAGHVFSYVDSEGSMLNLDELISSQPKGTHVYVCGPKPMIDAVIDCCNKHRYRDEYIHWEQFASTVPEDGEAFTVVLAKSNQEIEVQSNQTILQAIETLNIDVECLCREGVCGTCETAILEGEAEHFDQYLSDAEKASQKSMMICVSRAKGKKLVLDL
[5]
  Relative L-carnitine depletion activity of the chimeric enzyme (YeaX/YeaW = 100%): 20%
  Relative O2 depletion activity of the chimeric enzyme (YeaX/YeaW = 100%): 4%

B3: YeaX variant K313Q (enzyme)
chain: MSDYQMFEVQVSQVEPLTEQVKRFTLVATDGKPLPAFTGGSHVIVQMSDGDNQYSNAYSLLSSPHDTSCYQIAVRLEENSRGGSRFLHQQVKVGDRLTISTPNNLFALIPSARKHLFIAGGIGITPFLSHMAELQHSDVDWQLHYCSRNPESCAFRDELVQHPQAEKVHLHHSSTGTRLELARLLADIEPGTHVYTCGPEALIEAVRSEAARLDIAADTLHFEQFAIEDKTGDAFTLVLARSGKEFVVPEEMTILQVIENNKAAKVECLCREGVCGTCETAILEGEADHRDQYFSDEERASQQSMLICCSRAQGKRLVLDL
[6]
  residual L-carnitine depletion activity (wild type = 100%): 30%
  residual O2 depletion activity (wild type = 100%): 30%

B4: YeaX variant R271Q (enzyme)
chain: B3 chain with R271Q, Q313K
[7]
  residual L-carnitine depletion activity (wild type = 100%): 4%
  residual O2 depletion activity (wild type = 100%): 11%

B5: YeaX variant R271K (enzyme)
chain: B3 chain with R271K, Q313K
[7]
  residual L-carnitine depletion activity (wild type = 100%): 80%
  residual O2 depletion activity (wild type = 100%): 70%

B6: YeaX variant D320N (enzyme)
chain: B3 chain with Q313K, D320N
[8]
  L-carnitine depletion activity (wild type = 100%): 9%
  O2 depletion activity (wild type = 100%): 11%

B7: YeaX variant D320K (enzyme)
chain: B3 chain with Q313K, D320K
[8]
  residual L-carnitine depletion activity (wild type = 100%): 3%
  residual O2 depletion activity (wild type = 100%): 7%

B8: YeaX variant K313E (enzyme)
chain: B3 chain with Q313E
[6]
  residual L-carnitine depletion activity (wild type = 100%): 7%
  residual O2 depletion activity (wild type = 100%): 11%
